For one experiment, the target named is OX40_mb1. Description: SPR. For orientation: SPR reads the build-up and loss of mass on a sensor chip optically.
Another experiment addresses TNFR1_mb2. The experiment in a line: SPR.
For a further experiment, the target named is TNFR1_mb1. Description: SPR.
Another experiment deals with T1, TNFR1 (Homo sapiens, UniProt P19438).
T1 chain: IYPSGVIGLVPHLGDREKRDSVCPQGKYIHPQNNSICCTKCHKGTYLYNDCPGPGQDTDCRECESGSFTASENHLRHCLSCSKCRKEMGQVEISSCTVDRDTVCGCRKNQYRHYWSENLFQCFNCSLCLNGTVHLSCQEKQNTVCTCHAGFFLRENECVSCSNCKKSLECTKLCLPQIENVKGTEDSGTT
Description: yeast display SC50.

In a further experiment the target is T2, TNFR2 (UniProt P20333 23-212).
T2 chain: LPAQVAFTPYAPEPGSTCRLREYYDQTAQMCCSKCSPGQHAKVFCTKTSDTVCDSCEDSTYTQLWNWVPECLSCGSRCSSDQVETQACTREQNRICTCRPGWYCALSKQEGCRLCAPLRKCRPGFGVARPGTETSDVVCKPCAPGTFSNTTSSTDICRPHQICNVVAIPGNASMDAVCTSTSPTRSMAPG
Description: SPR.

Positions count from the first letter of the chain named. Names and notes keep the numbering of the source.

B1: OX40 (protein)
chain: LHCVGDTYPSNDRCCHECRPGNGMVSRCSRSQNTVCRPCGPGFYNDVVSSKPCKPCTWCNLRSGSERKQLCTATQDTVCRCRAGTQPLDSYKPGVDCAPCPPGHFSPGDNQACKPWTNCTLAGKHTLQPASNSSDAICEDRDPPATQPQETQGPPARPITVQPTEAWPRTSQGPSTRPVEVPGGRA
A word on the Kd: it is the equilibrium constant for the complex coming apart. Lower therefore signals higher affinity. For orientation: koff means the rate constant with which the complex falls apart. A low value points to a long-lived complex. In the experiment with OX40_mb1, B1 yielded a Kd of 30 nM and a koff of 0.033 s⁻¹.

B2: TNFR1 (protein)
chain: LVPHLGDREKRDSVCPQGKYIHPQNNSICCTKCHKGTYLYNDCPGPGQDTDCRECESGSFTASENHLRHCLSCSKCRKEMGQVEISSCTVDRDTVCGCRKNQYRHYWSENLFQCFNCSLCLNGTVHLSCQEKQNTVCTCHAGFFLRENECVSCSNCKKSLECTKLCLPQIENVKGTEDSGTT
In the experiment with TNFR1_mb2, B2 came in with a Kd of 24.5 nM and a koff of 0.0773 s⁻¹. Moreover, in the experiment with TNFR1_mb1, the affinity, expressed as Kd, was 29 nM and the koff is 0.134 s⁻¹.

B3: A23M (designed binder)
chain: MTLQELLREEALRRAEAEAFRYMLELLAEKFPEQKEYLLDLAEEIESQIRSLSGVDVEDVRKFLDKEWAWVKELLAEHPAELAEVEAARAARLAELRAEVEAKVAA
Consider B3, for which the “apparent Kd (screen)” value with TNFR1 is 0.539 nM.

B4: K62V (designed binder)
chain: B3 chain with M23A, K62V
As for B4, the “apparent Kd (screen)” value in the experiment with TNFR1 came out at 0.49 nM.

B5: E43I (designed binder)
chain: B3 chain with M23A, E43I
Regarding B5, in the experiment with TNFR1, the “apparent Kd (screen)” value stood at 0.539 nM.

B6: R97A (designed binder)
chain: B3 chain with M23A, R97A
Turning to B6, the “apparent Kd (screen)” value with TNFR1 stood at 0.718 nM.

B7: V71Q (designed binder)
chain: B3 chain with M23A, V71Q
For the molecule B7, the “apparent Kd (screen)” value with TNFR1 is 0.869 nM.

B8: T2N (designed binder)
chain: B3 chain with T2N, M23A
In the case of B8, in the experiment with TNFR1, the “apparent Kd (screen)” value was determined as 0.956 nM.

B9: E16N (designed binder)
chain: B3 chain with E16N, M23A
For the molecule B9, the “apparent Kd (screen)” value with TNFR1 came to 0.446 nM.

B10: L38W (designed binder)
chain: B3 chain with M23A, L38W
For B10, the “apparent Kd (screen)” value with TNFR1 was 0.49 nM.

B11: S51L (designed binder)
chain: B3 chain with M23A, S51L
Regarding B11, in the experiment with TNFR1, the “apparent Kd (screen)” value is 0.653 nM.

B12: D40P (designed binder)
chain: B3 chain with M23A, D40P
On to B12, for which the “apparent Kd (screen)” value with TNFR1 came out at 9.41 nM.

B13: E25V (designed binder)
chain: B3 chain with M23A, E25V
Consider B13, for which the “apparent Kd (screen)” value in the experiment with TNFR1 came out at 0.593 nM.

B14: S51M (designed binder)
chain: B3 chain with M23A, S51M
As for B14, the “apparent Kd (screen)” value in the experiment with TNFR1 amounted to 0.718 nM.

B15: TNFR2_mb1 (designed binder)
chain: LNPEQVAKIGAAIDAGRKYLDAKIEEAKKTLTLRTAQALLVIRSQYERAVDTLFTDPSAAEKELAATLATIDRLLKEHPELAAEIKAFIRSTMAEIRALLAASLAA
In the case of B15, the koff in the experiment with TNFR2 worked out at 0.00277 s⁻¹.

These data come from publication PMC12416549 (2024).
